Several values for one entry are separate records, joined by “and”; a condition that tells them apart may be missing. Equal entries are not always repeated.
Conditions: Escherichia coli (strain K12), pH 7.8, 25 °C, Urea, Potassium phosphate 100 mM, transition: 3, whole UniProt chain shown

B1: Tryptophan synthase alpha chain wild type, P0A877 (protein)
chain: MERYESLFAQLKERKEGAFVPFVTLGDPGIEQSLKIIDTLIEAGADALELGIPFSDPLADGPTIQNATLRAFAAGVTPAQCFEMLALIRQKHPTIPIGLLMYANLVFNKGIDEFYAQCEKVGVDSVLVADVPVEESAPFRQAALRHNVAPIFICPPNADDDLLRQIASYGRGYTYLLSRAGVTGAENRAALPLNHLVAKLKEYNAAPPLQGFGISAPDQVKAAIDAGAAGAISGSAIVKIIEQHINEPEKMLAALKVFVQPMKAATRS
CD
  unfolding free energy: 6.6 kcal/mol and 4.6 kcal/mol and 4.4 kcal/mol
Fluorescence
  denaturant m value: 2.2 kcal/mol/M and 1.1 kcal/mol/M and 0.83 kcal/mol/M
  unfolding free energy: 6 kcal/mol and 4.5 kcal/mol and 4.9 kcal/mol

— FireProtDB (doi:10.1110/ps.8.8.1623)
